# Experimental data: US20230064978A1, “CYCLIC PEPTIDE RECEPTOR LANTHIONINE SYNTHETASE C-LIKE PROTEIN (LANCL) AND USES THEREOF” (LATERAL IP PTY LTD, priority 2019, published 2023)
# “Also recorded” adds a separate entry of the source. Bridges are numbered along the chain shown (N, C = ends). Where no end group is shown, it is not given here.
# What was measured:
# [1] = target: T1, human recombinant LANCL1 (Homo sapiens, UniProt O43813); test: In-gel fluorescence: photolabelling of recombinant LANCL1 with PAL probes, with or without excess competitor; assay type: binding
# T1 construct: purchased ABCAM ab181923; host or cells: E. coli
# Experimental: The in-gel fluorescence protocol can be briefly described as follows:
# 1. LANCL1 Labelling, Assay on 96 Well Plate, Volume of the Reaction 40 μl in PBS
# 3 μg/well of human recombinant LANCL1 (ABCAM catalog no. ab181923, 1 mg/ml; expressed in E. Coli and incorporating an N-terminal 23 amino acid hexaHis tag; UniProtKB/Swiss-Prot Accession no: O43813);
# • Vehicle DMSO • ±LAT8881 (a cyclic peptide fragment of human growth hormone; SEQ ID NO:1) • SEQ ID NO:1) as competitor @ 25, 50, 100 or 200 μM, pre-incubation 10 min, 4 μl of a stock solution 10-fold concentrated • ±LAT9991-PAL, LAT7771-PAL or LAT9993-PAL probes @ 1 μM, incubation 30 min at room temperature on a plate agitator (protected from light), 4 μl of a stock solution @10 μM
# • Irradiation @ 365 nm 20 min (4° C., on a support containing ice) Transfer 40 μl in a clean Eppendorf tube
# • Reduction: DTT 10 mM, 30 min @ 56° C. • Alkylation: Iodoacetamide 30 mM, 45 min @ RT Click-iT AzideTamra of 60 μL samples
# (§1) • Acetone Precipitation −20° C. ON • Dry pellet resuspended in 30 μL 1% SDS in 50 mM Tris-HCl pH 7.5 • Photolabeled LANCL1 was tagged with tetramethylrhodamine (TAMRA) azide @100 μM TAMRA azide by copper click chemistry using the Click-iT Protein Reaction Buffer Kit (ThermoFisher Scientific) during 30 minutes • Precipitation using the chloroform-methanol method, pellet was air-dried for 10 min at room temperature, resuspended in 30 μL SDS loading buffer (Bio Rad's XT Sample Buffer containing 2.5% v/v 2-mercaptoethanol) and heated (60° C., 30 min)
# (§2) • SDS-PAGE (4-15% Criterion™ TGX Stain-Free™ Protein Gel, Bio Rad) • Analyzed by in-gel fluorescence scanning using a ChemiDoc™ MP Imaging System (Bio Rad) with a green LED light as an excitation source and a BP600/20 nm emission filter
# [2] = test system: DRG neurons; test: Confocal microscopy of PAL probe binding in DRG cell cultures, spinal nerve ligation model; assay type: cell-based, Sprague Dawley rats; settings: specificity control; excess unlabeled competitor
# Text: LAT9991-PAL was used in conjunction with confocal microscopy to visualise the location of potential target(s), noting that analgesic agents can have activity at several sites, either on central or peripheral neurons, or on glial or inflammatory cells that are in proximity to neurons. To identify the cell types to which LAT9991-PAL binds, 3-day cell cultures of DRG from neuropathic or control sites were taken from animals with neuropathy due to spinal nerve ligation. Briefly, L5 and L6 spinal nerves of male Sprague Dawley rats were ligated to create a robust and long-lasting mechanical allodynia of the injured hind paw. Presence of neuropathic pain was confirmed 2 weeks post-spinal nerve ligation surgeries (day 14) using von Frey (VF) filaments (up-and-down method) applied on ipsilateral (injured) and contralateral (non-injured) paw). Live DRG cells were dissected out as described previously and incubated with LAT9991-PAL for 1 hour prior to UV irradiation to fix the binding in situ. […] As a specificity control, the binding of LAT9991-PAL to the neuropathic DRG was blocked in the presence of an excess amount of unlabeled LAT9991 peptide.
# [3] = target: T2, human recombinant LANCL2 (Homo sapiens, UniProt Q9NS86); test: In-gel fluorescence: photolabelling of recombinant LANCL2 with PAL probe, with or without excess LAT8881; assay type: binding; settings: in-gel fluorescence after UV cross-linking
# T2 construct: human recombinant LANCL2 (amino acid residues 1-450); GST (N); purchased ABCAM ab163277; host or cells: wheat germ
# T2 sequence (Q9NS86 1-450): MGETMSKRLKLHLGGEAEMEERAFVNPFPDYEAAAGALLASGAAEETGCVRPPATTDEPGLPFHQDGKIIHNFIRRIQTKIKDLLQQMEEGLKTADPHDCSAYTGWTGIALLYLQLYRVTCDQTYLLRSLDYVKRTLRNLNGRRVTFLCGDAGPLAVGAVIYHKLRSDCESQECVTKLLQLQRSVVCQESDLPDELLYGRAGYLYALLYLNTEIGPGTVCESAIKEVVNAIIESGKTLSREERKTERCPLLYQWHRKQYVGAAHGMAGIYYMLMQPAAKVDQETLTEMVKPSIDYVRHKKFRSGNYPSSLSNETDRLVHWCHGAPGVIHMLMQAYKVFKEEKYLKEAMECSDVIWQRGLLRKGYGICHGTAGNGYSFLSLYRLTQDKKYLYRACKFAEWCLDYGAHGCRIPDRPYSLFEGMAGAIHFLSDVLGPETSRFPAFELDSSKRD
# Experimental: (§3) An in-gel fluorescence protocol was followed to determine whether the cyclic peptides bound to LANCL2 and LANCL3. Briefly:
# (§4) 1. LANCL2 and LANCL3 Labelling, Assay on 96 Well Plate, Volume of the Reaction 40 μl in PBS
# • 1 μg/well of human recombinant LANCL2 (amino acid residues 1-450; ABCAM catalog no. ab163277, ˜0.07 mg/ml; expressed in wheat germ and incorporating an N-terminal GST tag; UniProt Accession no: Q9NS86);
# • Vehicle DMSO • ±LAT8881 (a cyclic peptide fragment of human growth hormone; SEQ ID NO:1) • SEQ ID NO:1 as competitor @ 50, 100 or 200 μM, pre-incubation 10 min, 4 μl of a stock solution 10-fold concentrated • ±LAT9991-PAL probes @ 1 μM, incubation 30 min at room temperature on a plate agitator (protected from light), 4 μl of a stock solution @10 μM
# (§5) • Irradiation @ 365 nm 20 min (4° C., on a support containing ice) • Transfer 40 μl in a clean Eppendorf tube
# (§6) • Reduction: DTT 10 mM, 30 min @ 56° C. • Alkylation: Iodoacétamide 30 mM, 45 min @ RT Click-iT AzideTamra of 60 μL samples
# as §1, with “for” for “during”, “Rad” for “Rad's”
# as §2
# [4] = test system: tissue homogenates of nerve from neuropathic animals; test: PAL cross-linking to nerve tissue homogenates and gel separation; assay type: binding
# Text: Using a ligand driven approach, the present inventors utilized the photo-activatable cross-linking PAL from Evotec A.G. (Photo-Activated Labelling) technology that derivatizes the active cyclic peptides to allow UV-induced cross-linking to binding targets (described herein as peptide/SEQ ID NO:X-PAL). This allows subsequent detection in cells, gels of tissue isolates or in pull-down of the peptide/target complex for sequencing by mass spectroscopy (PALMS).
# LAT9991-PAL was cross-linked to tissue homogenates of nerve from neuropathic animals.
# [5] = target: LANCL1 (Rattus norvegicus, UniProt Q9QX69); test: Mass spectrometry of excised gel bands from PAL cross-linked homogenates (PALMS); assay type: binding; design: from tissue; host or cells: nerve tissue homogenate of neuropathic animals; settings: vs un-crosslinked samples (CU) and samples with excess LAT8881 (COMP); 37 kDa band
# Text: Having identified at least three molecular weight bands as representative of the potential targets, the 12-15 kD, 37 kD and 50 kD regions of the gel were excised, subjected to limited proteolysis and analysed by mass spectrometry to identify peptides from proteins that were differentially enriched. The detection of at least two different peptides from a protein that is enriched in the LAT9991-PAL cross-linked samples when compared to (i) the un-crosslinked samples and (ii) LAT9991-PAL in the presence of excess LAT8881 (SEQ ID NO:1; YLRIVQCRSVEGSCGF) was considered a positive signature. LAT9991-PAL, LAT9993-PAL and LAT7771-PAL were also used. LAT9993 (SEQ ID NO:41) has the amino acid sequence SCRSRPVESSC.
# [6] = target: T3, human recombinant LANCL3 (Homo sapiens, UniProt Q6ZV70); test: In-gel fluorescence: photolabelling of recombinant LANCL3 with PAL probe, with or without excess LAT8881; assay type: binding; settings: in-gel fluorescence after UV cross-linking
# T3 construct: human recombinant LANCL3 (amino acid residues 1-420); 10xHis (N); Myc (C); purchased ABCAM ab163277; host or cells: E. coli
# Experimental: as §3, §4
# • […] of human recombinant LANCL3 (amino acid residues 1-420; ABCAM catalog no. ab163277, ˜0.07 mg/ml; expressed in E. Coli and incorporating an N-terminal 10×His tag and a C-terminal Mvc tag; UniProt Accession no: Q6ZV70);
# • Vehicle DMSO • ±LAT8881 (a cyclic peptide fragment of human growth hormone; SEQ ID NO:1) • SEQ ID NO:1 as competitor @ 50, 100 or 200 μM, pre-incubation 10 min, […], incubation 30 min at room temperature on a plate agitator (protected from light), 4 μl of a stock solution @10 μM
# as §5, §6
# as §1, with “for” for “during”, “Rad” for “Rad's”
# as §2
# LANCL1, sequence (Q9QX69 whole entry): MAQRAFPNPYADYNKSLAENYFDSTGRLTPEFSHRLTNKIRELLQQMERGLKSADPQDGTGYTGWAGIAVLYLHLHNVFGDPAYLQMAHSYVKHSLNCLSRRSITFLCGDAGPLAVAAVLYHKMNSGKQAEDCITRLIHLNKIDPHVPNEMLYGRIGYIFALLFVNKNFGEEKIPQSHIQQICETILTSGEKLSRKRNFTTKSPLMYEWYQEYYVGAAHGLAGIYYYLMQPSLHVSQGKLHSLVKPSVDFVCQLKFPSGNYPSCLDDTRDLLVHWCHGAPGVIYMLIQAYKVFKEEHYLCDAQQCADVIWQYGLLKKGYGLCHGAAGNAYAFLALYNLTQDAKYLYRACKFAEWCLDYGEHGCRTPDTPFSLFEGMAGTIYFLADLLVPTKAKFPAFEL
# T1 sequence (O43813 with tags, fused parts or gaps): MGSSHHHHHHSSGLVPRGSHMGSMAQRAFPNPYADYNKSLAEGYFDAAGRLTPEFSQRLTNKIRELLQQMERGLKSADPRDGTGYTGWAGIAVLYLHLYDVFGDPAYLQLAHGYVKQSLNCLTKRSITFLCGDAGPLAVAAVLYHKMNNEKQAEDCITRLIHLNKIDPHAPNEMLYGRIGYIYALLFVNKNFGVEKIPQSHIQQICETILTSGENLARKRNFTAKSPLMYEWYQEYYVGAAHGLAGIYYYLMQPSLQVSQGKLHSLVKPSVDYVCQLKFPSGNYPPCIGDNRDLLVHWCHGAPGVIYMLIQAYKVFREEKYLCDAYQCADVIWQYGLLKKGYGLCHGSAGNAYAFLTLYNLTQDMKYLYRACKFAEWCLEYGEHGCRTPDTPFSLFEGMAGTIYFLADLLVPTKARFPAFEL
# T3 sequence (Q6ZV70 whole entry, the tested form may be a part): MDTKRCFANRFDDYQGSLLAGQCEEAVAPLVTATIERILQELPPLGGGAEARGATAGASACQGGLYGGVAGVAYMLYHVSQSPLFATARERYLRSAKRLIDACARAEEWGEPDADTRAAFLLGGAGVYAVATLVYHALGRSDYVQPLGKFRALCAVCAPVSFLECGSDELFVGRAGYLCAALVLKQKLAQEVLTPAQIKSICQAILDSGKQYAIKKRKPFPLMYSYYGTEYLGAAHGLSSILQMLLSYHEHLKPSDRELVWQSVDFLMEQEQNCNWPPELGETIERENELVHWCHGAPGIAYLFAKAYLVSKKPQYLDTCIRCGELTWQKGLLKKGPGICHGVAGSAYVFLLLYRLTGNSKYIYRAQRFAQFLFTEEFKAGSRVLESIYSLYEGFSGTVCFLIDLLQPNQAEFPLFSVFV
substance,measurement,setting,value
CRSVEGSCG (disulfide 1-8 (inferred)) [LAT9991],Inhibition of LAT9991-PAL binding to recombinant LANCL1 by excess competitor,"[1]; probe LAT9991-PAL, excess unlabelled competitor",inhibited
same,Block of LAT9991-PAL binding to neuropathic DRG by excess unlabeled peptide,[2],blocked
"LAT7771-PAL: cyclic peptide conjugate of LAT7771 (SEQ ID NO:52) with the PAL photo-activatable cross-linking group (CRIIHNNNC; disulfide 1-9 (inferred); also: ['PAL photo-activatable cross-linking group, structure and site not given here'])",Binding of PAL probe to recombinant LANCL1,[1]; in-gel fluorescence after UV (365 nm) cross-linking,bound to recombinant LANCL1
same,Binding of PAL probe to recombinant LANCL2,[3],bound to recombinant LANCL2
same,Cross-linking of PAL probe to tissue homogenates of nerve from neuropathic animals,[4],shown to cross-link
same,Molecular weight ranges of targets stained after gel separation,[4]; PAL probe cross-linked to nerve homogenates,"˜12-15 kD, ˜37 kD and ˜50 kD"
same,LANCL1 bound / enriched in PAL probe cross-linked samples (mass spectrometry),[5],enriched by several fold-changes; also recorded: bound to LANCL1
"LAT9993-PAL: cyclic peptide conjugate of LAT9993 (SEQ ID NO:41) with the PAL photo-activatable cross-linking group (SCRSRPVESSC; disulfide 2-11 (inferred); also: ['PAL photo-activatable cross-linking group, structure and site not given here'])",Binding of PAL probe to recombinant LANCL3,[6],bound to recombinant LANCL3
same,Cross-linking of PAL probe to tissue homogenates of nerve from neuropathic animals,[4],shown to cross-link
same,LANCL1 bound / enriched in PAL probe cross-linked samples (mass spectrometry),[5],enriched by several fold-changes; also recorded: bound to LANCL1
